The source of these data is patent US20220088148A1 (HANMI PHARM, published 2022).

First the molecules themselves.
T1: human GIP receptor (human, UniProt P48546 22-466)
T1 sequence (looked up): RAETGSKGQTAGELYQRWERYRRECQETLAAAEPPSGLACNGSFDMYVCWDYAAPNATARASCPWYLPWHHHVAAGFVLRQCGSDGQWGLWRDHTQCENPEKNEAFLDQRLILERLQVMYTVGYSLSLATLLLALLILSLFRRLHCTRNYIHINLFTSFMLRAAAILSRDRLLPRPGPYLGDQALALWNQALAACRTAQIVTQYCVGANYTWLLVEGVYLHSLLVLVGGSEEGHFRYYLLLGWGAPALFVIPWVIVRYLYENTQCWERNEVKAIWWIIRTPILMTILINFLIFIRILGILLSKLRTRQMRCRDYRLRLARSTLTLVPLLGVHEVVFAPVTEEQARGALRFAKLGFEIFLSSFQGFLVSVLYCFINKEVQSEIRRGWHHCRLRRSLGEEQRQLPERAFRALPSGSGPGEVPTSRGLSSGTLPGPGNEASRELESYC

Bridges are numbered along the chain shown (N, C = ends). Where no end group is shown, it is not given here. [ ]: non-standard residue; d: D form. The star is where a group is joined. Acetyl(2-(4-imidazolyl)) = O=C(Cc1c[nH]cn1)*; Aib = CC(C)(N)C(=O)O

One assay addresses human GLP-1 receptor (human, UniProt P43220 24-463). Kind of assay: cell-based or functional assay.
As for Y[Aib]QGTFTSDYSKCLDEKAAKEFVQWLLDHHPSSGQPPPS (bridge 16-20; ends not checked) [triple agonist of SEQ ID NO: 68], the “In vitro activity (%) vs. GLP-1, cAMP EC50” value came to 27.9%.

As to H[Aib]QGTFTSDVSKYLDGQAAQEFVAWLLKGC [triple agonist of SEQ ID NO: 8], the “In vitro activity (%) vs. GLP-1, cAMP EC50” value was 14.2%.

On to H[Aib]EGTFTSDYSIAMDEIHQKDFVDWLLAEKC (bridge 16-20) [triple agonist of SEQ ID NO: 80], for which the “In vitro activity (%) vs. GLP-1, cAMP EC50” value came out at 8.1%.

In the case of Y[Aib]QGTFTSDYSKYLDERACKDFVQWLLDHHPSSGQPPPS (bridge 16-20; ends not checked) [triple agonist of SEQ ID NO: 71], the “In vitro activity (%) vs. GLP-1, cAMP EC50” value stood at 90.1%.

For the molecule Y[Aib]QGTFTSDYSKCLDERAAKEFVQWLLDHHPSSGQPPPS (bridge 16-20; ends not checked) [triple agonist of SEQ ID NO: 69], the “In vitro activity (%) vs. GLP-1, cAMP EC50” value was 24.3%.

Consider H[Aib]QGTFTSDYSKCLDEKRAKEFVQWLLDHHPSSGQPPPS (bridge 16-20; ends not checked) [triple agonist of SEQ ID NO: 65], for which the “In vitro activity (%) vs. GLP-1, cAMP EC50” value worked out at 95.4%.

Regarding H[Aib]QGTFTSDVSKYLDGQAAQEFVAWLLAGC [triple agonist of SEQ ID NO: 9], the “In vitro activity (%) vs. GLP-1, cAMP EC50” value came to 32.1%.

[Acetyl(2-(4-imidazolyl))][Aib]QGTFTSDYSIAMDEKHCKDFVNWLLNTK (bridge 16-20; ends not checked) [triple agonist of SEQ ID NO: 60]: the “In vitro activity (%) vs. GLP-1, cAMP EC50” value stood at 106%.

Turning to Y[Aib]QGTFTSDYSKYLDECAAKEFVQWLLDHHPSSGQPPPS (bridge 16-20; ends not checked) [triple agonist of SEQ ID NO: 64], the “In vitro activity (%) vs. GLP-1, cAMP EC50” value was 64.6%.

[Acetyl(2-(4-imidazolyl))][Aib]EGTFTSDYSIAMDEIHQKDFVNWLLAQC (bridge 16-20) [triple agonist of SEQ ID NO: 83]: the “In vitro activity (%) vs. GLP-1, cAMP EC50” value came to 47.3%.

Consider H[Aib]QGTFTSDVSKYLDGQAAKEFVAWLLKGC (ends and bridges not checked) [triple agonist of SEQ ID NO: 7], for which the “In vitro activity (%) vs. GLP-1, cAMP EC50” value was determined as 13.7%.

With Y[Aib]QGTFTSDYSKYLDEKAAKDFVQWLLDHHPSSGQPPPSC (bridge 16-20) [triple agonist of SEQ ID NO: 77], the “In vitro activity (%) vs. GLP-1, cAMP EC50” value was 38.7%.

For [Acetyl(2-(4-imidazolyl))][Aib]QGTFTSDYSKYLDECRAKEFVQWLLDHHPSSGQPPPS (bridge 16-20; ends not checked) [triple agonist of SEQ ID NO: 73], the “In vitro activity (%) vs. GLP-1, cAMP EC50” value is 22.6%.

The target of the next assay is human GCG receptor (human, UniProt P47871 26-477). Kind of assay: cell-based or functional assay.
Sequence of human GCG receptor (P47871 26-477): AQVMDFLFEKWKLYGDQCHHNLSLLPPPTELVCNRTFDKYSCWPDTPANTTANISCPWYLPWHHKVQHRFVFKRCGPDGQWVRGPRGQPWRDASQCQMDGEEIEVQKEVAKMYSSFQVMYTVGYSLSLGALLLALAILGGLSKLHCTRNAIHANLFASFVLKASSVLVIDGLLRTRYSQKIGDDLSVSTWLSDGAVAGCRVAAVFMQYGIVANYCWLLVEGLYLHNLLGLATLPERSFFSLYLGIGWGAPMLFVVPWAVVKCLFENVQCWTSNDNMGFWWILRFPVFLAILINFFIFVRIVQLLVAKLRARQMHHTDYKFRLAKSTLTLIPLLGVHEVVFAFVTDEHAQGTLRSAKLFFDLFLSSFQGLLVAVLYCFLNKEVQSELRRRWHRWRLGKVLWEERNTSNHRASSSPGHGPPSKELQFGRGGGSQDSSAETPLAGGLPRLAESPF
As to Y[Aib]QGTFTSDYSKCLDEKAAKEFVQWLLDHHPSSGQPPPS (bridge 16-20; ends not checked) [triple agonist of SEQ ID NO: 68], the “In vitro activity (%) vs. Glucagon, cAMP EC50” value was determined as 8.8%.

As for H[Aib]QGTFTSDVSKYLDGQAAQEFVAWLLKGC [triple agonist of SEQ ID NO: 8], the “In vitro activity (%) vs. Glucagon, cAMP EC50” value was 0.1%.

For H[Aib]EGTFTSDYSIAMDEIHQKDFVDWLLAEKC (bridge 16-20) [triple agonist of SEQ ID NO: 80], the “In vitro activity (%) vs. Glucagon, cAMP EC50” value was 0%.

Consider Y[Aib]QGTFTSDYSKYLDERACKDFVQWLLDHHPSSGQPPPS (bridge 16-20; ends not checked) [triple agonist of SEQ ID NO: 71], for which the “In vitro activity (%) vs. Glucagon, cAMP EC50” value is 12.7%.

On to Y[Aib]QGTFTSDYSKCLDERAAKEFVQWLLDHHPSSGQPPPS (bridge 16-20; ends not checked) [triple agonist of SEQ ID NO: 69], for which the “In vitro activity (%) vs. Glucagon, cAMP EC50” value is 9.6%.

In the case of H[Aib]QGTFTSDYSKCLDEKRAKEFVQWLLDHHPSSGQPPPS (bridge 16-20; ends not checked) [triple agonist of SEQ ID NO: 65], the “In vitro activity (%) vs. Glucagon, cAMP EC50” value stood at 25.2%.

Consider H[Aib]QGTFTSDVSKYLDGQAAQEFVAWLLAGC [triple agonist of SEQ ID NO: 9], for which the “In vitro activity (%) vs. Glucagon, cAMP EC50” value is 0.13%.

[Acetyl(2-(4-imidazolyl))][Aib]QGTFTSDYSIAMDEKHCKDFVNWLLNTK (bridge 16-20; ends not checked) [triple agonist of SEQ ID NO: 60]: the “In vitro activity (%) vs. Glucagon, cAMP EC50” value was less than 0.1%.

Regarding Y[Aib]QGTFTSDYSKYLDECAAKEFVQWLLDHHPSSGQPPPS (bridge 16-20; ends not checked) [triple agonist of SEQ ID NO: 64], the “In vitro activity (%) vs. Glucagon, cAMP EC50” value was determined as 60.1%.

As for [Acetyl(2-(4-imidazolyl))][Aib]EGTFTSDYSIAMDEIHQKDFVNWLLAQC (bridge 16-20) [triple agonist of SEQ ID NO: 83], the “In vitro activity (%) vs. Glucagon, cAMP EC50” value amounted to 1.3%.

Regarding H[Aib]QGTFTSDVSKYLDGQAAKEFVAWLLKGC (ends and bridges not checked) [triple agonist of SEQ ID NO: 7], the “In vitro activity (%) vs. Glucagon, cAMP EC50” value was less than 0.1%.

For Y[Aib]QGTFTSDYSKYLDEKAAKDFVQWLLDHHPSSGQPPPSC (bridge 16-20) [triple agonist of SEQ ID NO: 77], the “In vitro activity (%) vs. Glucagon, cAMP EC50” value was 12.2%.

[Acetyl(2-(4-imidazolyl))][Aib]QGTFTSDYSKYLDECRAKEFVQWLLDHHPSSGQPPPS (bridge 16-20; ends not checked) [triple agonist of SEQ ID NO: 73]: the “In vitro activity (%) vs. Glucagon, cAMP EC50” value is 5.4%.

A further assay addresses T1, human GIP receptor. The assay is described as follows: cell-based or functional assay.
With Y[Aib]QGTFTSDYSKCLDEKAAKEFVQWLLDHHPSSGQPPPS (bridge 16-20; ends not checked) [triple agonist of SEQ ID NO: 68], the “In vitro activity (%) vs. GIP, cAMP EC50” value was 107%.

With H[Aib]QGTFTSDVSKYLDGQAAQEFVAWLLKGC [triple agonist of SEQ ID NO: 8], the “In vitro activity (%) vs. GIP, cAMP EC50” value was less than 0.1%.

For H[Aib]EGTFTSDYSIAMDEIHQKDFVDWLLAEKC (bridge 16-20) [triple agonist of SEQ ID NO: 80], the “In vitro activity (%) vs. GIP, cAMP EC50” value was found to be 0.1%.

For the molecule Y[Aib]QGTFTSDYSKYLDERACKDFVQWLLDHHPSSGQPPPS (bridge 16-20; ends not checked) [triple agonist of SEQ ID NO: 71], the “In vitro activity (%) vs. GIP, cAMP EC50” value stood at 94.7%.

Turning to Y[Aib]QGTFTSDYSKCLDERAAKEFVQWLLDHHPSSGQPPPS (bridge 16-20; ends not checked) [triple agonist of SEQ ID NO: 69], the “In vitro activity (%) vs. GIP, cAMP EC50” value turned out to be 62.8%.

With H[Aib]QGTFTSDYSKCLDEKRAKEFVQWLLDHHPSSGQPPPS (bridge 16-20; ends not checked) [triple agonist of SEQ ID NO: 65], the “In vitro activity (%) vs. GIP, cAMP EC50” value was determined as 11.6%.

For H[Aib]QGTFTSDVSKYLDGQAAQEFVAWLLAGC [triple agonist of SEQ ID NO: 9], the “In vitro activity (%) vs. GIP, cAMP EC50” value was less than 0.1%.

Regarding [Acetyl(2-(4-imidazolyl))][Aib]QGTFTSDYSIAMDEKHCKDFVNWLLNTK (bridge 16-20; ends not checked) [triple agonist of SEQ ID NO: 60], the “In vitro activity (%) vs. GIP, cAMP EC50” value is 8.2%.

With Y[Aib]QGTFTSDYSKYLDECAAKEFVQWLLDHHPSSGQPPPS (bridge 16-20; ends not checked) [triple agonist of SEQ ID NO: 64], the “In vitro activity (%) vs. GIP, cAMP EC50” value amounted to 92.9%.

For the molecule [Acetyl(2-(4-imidazolyl))][Aib]EGTFTSDYSIAMDEIHQKDFVNWLLAQC (bridge 16-20) [triple agonist of SEQ ID NO: 83], the “In vitro activity (%) vs. GIP, cAMP EC50” value stood at 0.4%.

On to H[Aib]QGTFTSDVSKYLDGQAAKEFVAWLLKGC (ends and bridges not checked) [triple agonist of SEQ ID NO: 7], for which the “In vitro activity (%) vs. GIP, cAMP EC50” value was less than 0.1%.

With Y[Aib]QGTFTSDYSKYLDEKAAKDFVQWLLDHHPSSGQPPPSC (bridge 16-20) [triple agonist of SEQ ID NO: 77], the “In vitro activity (%) vs. GIP, cAMP EC50” value was determined as 35.5%.

On to [Acetyl(2-(4-imidazolyl))][Aib]QGTFTSDYSKYLDECRAKEFVQWLLDHHPSSGQPPPS (bridge 16-20; ends not checked) [triple agonist of SEQ ID NO: 73], for which the “In vitro activity (%) vs. GIP, cAMP EC50” value amounted to 3%.
